The data set can be described thus: self-splicing fitness, log relative to wild type (ln ratio); higher = more splicing; Tetrahymena group I intron in knt gene, E. coli kanamycin selection, DiMSum; sequences stand for … in CUCUCU…GGAGGGAAAAGUUAUCAGGCAUGCACCUGGUAGCUAGUCUUUAAACCAAUAGAUUGCAUCGGUUUAAAAGGCAAGACCGUCAAAUUGCGGGAAAGGGGUCAACAGCCGUUCAGUACCAAGUCUCAGGGGAAACUUUGAGAUGGCCUUGCAAAGGGUAUGGUAAUAAGCUGACGGACAUGGUCCUAACCACGCAGCCAAGUCCUAAGUCAACAGAUCUUCUGUUGAUAUGGAUGCAGUUCACAGACUAAAUGUCGGUCGGGGAAGAUGUAUUCUUCUCAUAAGAUAUAGUCGGACCUCUCCUUAAUGGGAGCUAGCGGAUGAAGUGAUGCAACACUGGAGCCGCUGGGAACUAAUUUGUAUGCGAAAGUAUAUUGAUUAGUUUUGGAGUACUCGUGGUCG
In outline: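 A randomised library covering all eight P1ex-region intron nucleotides was built with the intron in the knt kanamycin-resistance gene on pET-22b(+) and held in E. coli BL21(DE3). Cells were grown overnight at 37°C or 30°C on LB agar, with or without 25 μg/mL kanamycin, plus 100 μg/mL carbenicillin, 50 μM IPTG and 0.2% rhamnose, and pooled colonies were amplicon-sequenced on an Illumina HiSeq 2500. DiMSum fitness is the error-weighted combination of wild-type-normalised replicate fold changes, kanamycin versus none.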

± gives the uncertainty stated by the source.

Take CUUGAGCAAUAUUACGACGU: the “self-splicing fitness (ln)” value reads like this: (30 °C) -3.62 ± 0.35; (37 °C) -2.25 ± 0.21.
Consider CGGAAGCAAUAUUACGUUUU, for which the “self-splicing fitness (ln)” value runs as follows: (30 °C) -3.64 ± 0.23; (37 °C) -2.95 ± 0.18.
As for UAAUAGCAAUAUUACGAUGU, the “self-splicing fitness (ln)” value was -2.78 ± 0.18 (30 °C) and -2.48 ± 0.19 (37 °C).
On to GCCGAGCAAUAUUACGAUUA, for which the “self-splicing fitness (ln)” value (30 °C) is -1.44 ± 0.13 and the “self-splicing fitness (ln)” value (37 °C) was -1.39 ± 0.15.
On to CUCUAGCAAUAUUACGCAAU, for which the “self-splicing fitness (ln)” value (37 °C) is -3.09 ± 0.38.
For the sequence AACGAGCAAUAUUACGGCGG, the “self-splicing fitness (ln)” value was -2.67 ± 0.14 (30 °C) and -1.13 ± 0.13 (37 °C).
Regarding CCAAAGCAAUAUUACGCGAU, the “self-splicing fitness (ln)” value is, setting by setting: (30 °C) -3.16 ± 0.21; (37 °C) -2.79 ± 0.28.
Turning to UGGUAGCAAUAUUACGUCCA, the “self-splicing fitness (ln)” value is -0.714 ± 0.24 (30 °C) and -0.608 ± 0.3 (37 °C).
For GGUCAGCAAUAUUACGUCCU, in that order: -2.63 ± 0.31 and -1.85 ± 0.29.
Consider GCCCAGCAAUAUUACGCGAC, for which the “self-splicing fitness (ln)” value by setting is: (30 °C) -2.9 ± 0.17; (37 °C) -1.55 ± 0.14.
Turning to UUUCAGCAAUAUUACGUCCC, the “self-splicing fitness (ln)” value is, setting by setting: (30 °C) -1.43 ± 0.39; (37 °C) -0.811 ± 0.4.
In the case of UAAUAGCAAUAUUACGUACA, the “self-splicing fitness (ln)” value is -1.05 ± 0.11 (30 °C) and -0.0465 ± 0.13 (37 °C).
On to CGCCAGCAAUAUUACGGCCA, for which the “self-splicing fitness (ln)” value is -0.294 ± 0.11 (30 °C) and 0.0865 ± 0.13 (37 °C).
For CCCCAGCAAUAUUACGUAAC, in that order: -5 ± 0.27 and -2.67 ± 0.18.
For GUUCAGCAAUAUUACGGCAU the same measures were -0.334 ± 0.067 and 0.567 ± 0.072.
For GAGCAGCAAUAUUACGGUGG, in that order: -3.9 ± 0.2 and -2.31 ± 0.16.
As to GCCCAGCAAUAUUACGGACC, the “self-splicing fitness (ln)” value (30 °C) was -3.47 ± 0.23 and the “self-splicing fitness (ln)” value (37 °C) is -2.94 ± 0.31.
As for CGAUAGCAAUAUUACGAAUA, the “self-splicing fitness (ln)” value was -0.837 ± 0.46 (30 °C) and -1.47 ± 0.46 (37 °C).
For CCUGAGCAAUAUUACGUAGC, in that order: -4.49 ± 0.27 and -1.77 ± 0.16.
Take UACUAGCAAUAUUACGGACC: the “self-splicing fitness (ln)” value (37 °C) is -1.13 ± 0.33.
As to AUAGAGCAAUAUUACGAUUC, the “self-splicing fitness (ln)” value by setting is: (30 °C) -2.37 ± 0.28; (37 °C) -1.08 ± 0.33.
GAUGAGCAAUAUUACGAAUU: the “self-splicing fitness (ln)” value (30 °C) was -3.84 ± 0.47.
On to UAGUAGCAAUAUUACGGUGA, for which the “self-splicing fitness (ln)” value (30 °C) was -2.29 ± 0.42 and the “self-splicing fitness (ln)” value (37 °C) was -1.46 ± 0.24.
For AGACAGCAAUAUUACGACCU, in that order: 0.0744 ± 0.084 and -0.545 ± 0.093.
In the case of CCGCAGCAAUAUUACGCCCC, the “self-splicing fitness (ln)” value (30 °C) is -3.29 ± 0.36 and the “self-splicing fitness (ln)” value (37 °C) was -1.4 ± 0.45.
For the sequence GAAGAGCAAUAUUACGGCAG, the “self-splicing fitness (ln)” value was -4.54 ± 0.36 (30 °C) and -1.97 ± 0.23 (37 °C).
For GGCUAGCAAUAUUACGAUCU, in that order: -0.432 ± 0.1 and 0.129 ± 0.12.
For GGUCAGCAAUAUUACGGACA the same measures were -0.754 ± 0.19 and -0.179 ± 0.17.
For GCCGAGCAAUAUUACGUGGA the same measures were -1.68 ± 0.12 and -1.76 ± 0.15.
UCGCAGCAAUAUUACGACUG: the “self-splicing fitness (ln)” value (30 °C) was -1.93 ± 0.14 and the “self-splicing fitness (ln)” value (37 °C) is -2.7 ± 0.25.
For GAAUAGCAAUAUUACGACUA the same measures were -1.42 ± 0.2 and -0.533 ± 0.31.
For CAUAAGCAAUAUUACGACUU, in that order: -3.55 ± 0.24 and -1.5 ± 0.16.
For GGGAAGCAAUAUUACGGCAC the same measures were 0.0244 ± 0.3 and -0.976 ± 0.36.
UCGAAGCAAUAUUACGCUAC: where the note is “30 °C”, the “self-splicing fitness (ln)” value was -2.18 ± 0.26.

Values taken from the supplement of paper PMC7877785.
